This data set deals with the molecule itself. As to the kind of experiment: SEC.

B1: full-length MmpL4 (M. tuberculosis) (natural protein)
chain: MSTKFANDSNTNARPEKPFIARMIHAFAVPIILGWLAVCVVVTVFVPSLEAVGQERSVSLSPKDAPSFEAMGRIGMVFKEGDSDSFAMVIIEGNQPLGDAAHKYYDGLVAQLRADKKHVQSVQDLWGDPLTAAGVQSNDGKAAYVQLSLAGNQGTPLANESVEAVRSIVESTPAPPGIKAYVTGPSALAADMHHSGDRSMARITMVTVAVIFIMLLLVYRSIITVVLLLITVGVELTAARGVVAVLGHSGAIGLTTFAVSLLTSLAIAAGTDYGIFIIGRYQEARQAGEDKEAAYYTMYRGTAHVILGSGLTIAGATFCLSFARMPYFQTLGIPCAVGMLVAVAVALTLGPAVLHVGSRFGLFDPKRLLKVRGWRRVGTVVVRWPLPVLVATCAIALVGLLALPGYKTSYNDRDYLPDFIPANQGYAAADRHFSQARMKPEILMIESDHDMRNPADFLVLDKLAKGIFRVPGISRVQAITRPEGTTMDHTSIPFQISMQNAGQLQTIKYQRDRANDMLKQADEMATTIAVLTRMHSLMAEMASTTHRMVGDTEEMKEITEELRDHVADFDDFWRPIRSYFYWEKHCYGIPICWSFRSIFDALDGIDKLSEQIGVLLGDLREMDRLMPQMVAQIPPQIEAMENMRTMILTMHSTMTGIFDQMLEMSDNATAMGKAFDAAKNDDSFYLPPEVFKNKDFQRAMKSFLSSDGHAARFIILHRGDPQSPEGIKSIDAIRTAAEESLKGTPLEDAKIYLAGTAAVFHDISEGAQWDLLIAAISSLCLIFIIMLIITRAFIAAAVIVGTVALSLGASFGLSVLLWQHILAIHLHWLVLAMSVIVLLAVGSDYNLLLVSRFKQEIGAGLKTGIIRSMGGTGKVVTNAGLVFAVTMASMAVSDLRVIGQVGTTIGLGLLFDTLIVRSFMTPSIAALLGRWFWWPLRVRSRPARTPTVPSETQPAGRPLAMSSDRLG
In the case of B1, the binding result was “binds”.

(Values after paper PMC11850643 (Nature Communications, 2025).)
